B1: LOC100129726 (parent)
chain: AKAADSPTRNDLESGLGHFSLRVH
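Further: lentivirally expressed fusions sorted by FACS into six bins by GFP to DsRed ratio, PSI derived from sequencing read proportions per bin multiplied by bin number.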

The data set covers variants of B1. Nature of the data set: protein stability index of a GFP-peptide fusion (GPS, HEK-293T) (PSI 1-6); higher = more stable. As to conditions: c terminus: a fixed tail appended.
With AKAADSPTRNDLESGLGTFSLRVH [H18T], the protein stability index is 3.05.

Turning to AKAADSPTRNDLESGLNHFSLRVH [G17N], the protein stability index was found to be 3.18. With AKAADSPTRNDLESGLDHFSLRVH [G17D], the protein stability index is 3.82. Regarding AKAADSPTRNDLESGLVHFSLRVH [G17V], the protein stability index worked out at 3.13. With AKAADSPTRNDLESGLEHFSLRVH [G17E], the protein stability index was determined as 3.58. In the case of AKAADSPTRNDLESGLFHFSLRVH [G17F], the protein stability index was 2.08.

With AKAADSPTRNDLESGLLHFSLRVH [G17L], the protein stability index worked out at 1.65. Consider AKAADSPTRNDLESGLIHFSLRVH [G17I], for which the protein stability index turned out to be 2.28.

Regarding AKAADSPTRNDLESGLHHFSLRVH [G17H], the protein stability index is 2.57. Next, AKAADSPTRNDLESGLSHFSLRVH [G17S]: 2.84; AKAADSPTRNDLESGLKHFSLRVH [G17K]: 2.89. Take AKAADSPTRNDLESGLWHFSLRVH [G17W]: the protein stability index came to 2.96. Consider AKAADSPTRNDLESGLTHFSLRVH [G17T], for which the protein stability index stood at 2.56. Consider AKAADSPTRNDLESGLPHFSLRVH [G17P], for which the protein stability index was 3.06.

In the case of AKAADSPTRNDLESGLAHFSLRVH [G17A], the protein stability index was 2.84. For AKAADSPTRNDLESGLCHFSLRVH [G17C], the protein stability index is 2.85. As to AKAADSPTRNDLESGLYHFSLRVH [G17Y], the protein stability index turned out to be 2.37. Turning to AKAADSPTRNDLESGLRHFSLRVH [G17R], the protein stability index stood at 2.89.

With AKAADSPTRNDLESGLMHFSLRVH [G17M], the protein stability index worked out at 2.27.

Turning to AKAADSPTRNDLESGLGHFSCRVH [L21C], the protein stability index came out at 4.2. For AKAADSPTRNDLESGLGHFSNRVH [L21N], the protein stability index came to 4.3. For AKAADSPTRNDLESGLGHFSQRVH [L21Q], the protein stability index was 4.

Take AKAADSPTRNDLESGLGHFSTRVH [L21T]: the protein stability index was determined as 4.08. Regarding AKAADSPTRNDLESGLGHFSPRVH [L21P], the protein stability index worked out at 4.25. For AKAADSPTRNDLESGLGHFSDRVH [L21D], the protein stability index is 5.01. For the variant AKAADSPTRNDLESGLGHFSIRVH [L21I], the protein stability index came out at 2.33. With AKAADSPTRNDLESGLGHFSGRVH [L21G], the protein stability index amounted to 4.79. With AKAADSPTRNDLESGLGHFSRRVH [L21R], the protein stability index amounted to 2.98.

On to AKAADSPTRNDLESGLGHFSHRVH [L21H], for which the protein stability index stood at 3.55. Next, AKAADSPTRNDLESGLGHFSARVH [L21A]: 4.25; AKAADSPTRNDLESGLGHFSFRVH [L21F]: 2.38; AKAADSPTRNDLESGLGHFSWRVH [L21W]: 3.45. As for AKAADSPTRNDLESGLGHFSKRVH [L21K], the figure is 3.5; as for AKAADSPTRNDLESGLGHFSVRVH [L21V], 3.84; as for AKAADSPTRNDLESGLGHFSMRVH [L21M], 3.6.

For the variant AKAADSPTRNDLESGLGHFSERVH [L21E], the protein stability index was found to be 4.38. Next, AKAADSPTRNDLESGLGHFSYRVH [L21Y]: 3.06; AKAADSPTRNDLESGLGHFSSRVH [L21S]: 4.39; AKAADSPTRNDLEEGLGHFSLRVH [S14E]: 3.81.

Regarding AKAADSPTRNDLEQGLGHFSLRVH [S14Q], the protein stability index came to 2.94. For AKAADSPTRNDLEPGLGHFSLRVH [S14P], the protein stability index was 2.85. For AKAADSPTRNDLEDGLGHFSLRVH [S14D], the protein stability index is 3.85. Consider AKAADSPTRNDLEVGLGHFSLRVH [S14V], for which the protein stability index stood at 2.63.

As to AKAADSPTRNDLETGLGHFSLRVH [S14T], the protein stability index was determined as 2.94. With AKAADSPTRNDLEWGLGHFSLRVH [S14W], the protein stability index is 1.36. Next, AKAADSPTRNDLEYGLGHFSLRVH [S14Y]: 3.97; AKAADSPTRNDLEAGLGHFSLRVH [S14A]: 3.28. With AKAADSPTRNDLEIGLGHFSLRVH [S14I], the protein stability index came to 2.38. AKAADSPTRNDLEMGLGHFSLRVH [S14M]: the protein stability index is 2.5.

AKAADSPTRNDLEFGLGHFSLRVH [S14F]: the protein stability index is 2.25. As to AKAADSPTRNDLELGLGHFSLRVH [S14L], the protein stability index amounted to 2.57. As for AKAADSPTRNDLEHGLGHFSLRVH [S14H], the protein stability index worked out at 3.21. For AKAADSPTRNDLENGLGHFSLRVH [S14N], the protein stability index worked out at 3.68. In the case of AKAADSPTRNDLEGGLGHFSLRVH [S14G], the protein stability index is 2.9. As for AKAADSPTRNDLECGLGHFSLRVH [S14C], the protein stability index is 2.34.

On to AKAADSPTRNDLERGLGHFSLRVH [S14R], for which the protein stability index was determined as 2.78. As for AKAADSPTRNDLEKGLGHFSLRVH [S14K], the figure is 3.36; as for AKAADSPTRNDLESGTGHFSLRVH [L16T], 3.8.

In the case of AKAADSPTRNDLESGEGHFSLRVH [L16E], the protein stability index worked out at 4.23. As to AKAADSPTRNDLESGGGHFSLRVH [L16G], the protein stability index came out at 3.58. As to AKAADSPTRNDLESGRGHFSLRVH [L16R], the protein stability index worked out at 3.78. AKAADSPTRNDLESGQGHFSLRVH [L16Q]: the protein stability index amounted to 3.28. Next, AKAADSPTRNDLESGAGHFSLRVH [L16A]: 3.97; AKAADSPTRNDLESGPGHFSLRVH [L16P]: 3.12; AKAADSPTRNDLESGFGHFSLRVH [L16F]: 2.57.

Regarding AKAADSPTRNDLESGDGHFSLRVH [L16D], the protein stability index was 3.82. As for AKAADSPTRNDLESGMGHFSLRVH [L16M], the figure is 3.26; as for AKAADSPTRNDLESGYGHFSLRVH [L16Y], 2.84. Regarding AKAADSPTRNDLESGNGHFSLRVH [L16N], the protein stability index worked out at 3.67. With AKAADSPTRNDLESGSGHFSLRVH [L16S], the protein stability index is 3.77.

Consider AKAADSPTRNDLESGWGHFSLRVH [L16W], for which the protein stability index amounted to 2.74. As to AKAADSPTRNDLESGHGHFSLRVH [L16H], the protein stability index was 3.44.

With AKAADSPTRNDLESGIGHFSLRVH [L16I], the protein stability index was 3.71. Turning to AKAADSPTRNDLESGKGHFSLRVH [L16K], the protein stability index was determined as 3.89. Take AKAADSPTRNDLESGVGHFSLRVH [L16V]: the protein stability index worked out at 2.38.

As for AKAADSPTRNDLESGLGHFDLRVH [S20D], the protein stability index came to 3.46. Turning to AKAADSPTRNDLESGLGHFKLRVH [S20K], the protein stability index was 3.4. For the variant AKAADSPTRNDLESGLGHFELRVH [S20E], the protein stability index stood at 3.72. In the case of AKAADSPTRNDLESGLGHFALRVH [S20A], the protein stability index stood at 3.29. As for AKAADSPTRNDLESGLGHFLLRVH [S20L], the figure is 2.09; as for AKAADSPTRNDLESGLGHFGLRVH [S20G], 3.11.

Take AKAADSPTRNDLESGLGHFPLRVH [S20P]: the protein stability index was determined as 3.81. With AKAADSPTRNDLESGLGHFYLRVH [S20Y], the protein stability index is 1.58.

On to AKAADSPTRNDLESGLGHFILRVH [S20I], for which the protein stability index was 1.48. Turning to AKAADSPTRNDLESGLGHFRLRVH [S20R], the protein stability index amounted to 2.19. As to AKAADSPTRNDLESGLGHFTLRVH [S20T], the protein stability index amounted to 3.1. Regarding AKAADSPTRNDLESGLGHFNLRVH [S20N], the protein stability index stood at 3.45. As for AKAADSPTRNDLESGLGHFCLRVH [S20C], the figure is 2.45; as for AKAADSPTRNDLESGLGHFHLRVH [S20H], 3.35. With AKAADSPTRNDLESGLGHFFLRVH [S20F], the protein stability index was found to be 2.05. With AKAADSPTRNDLESGLGHFVLRVH [S20V], the protein stability index worked out at 2.21. For the variant AKAADSPTRNDLESGLGHFMLRVH [S20M], the protein stability index came out at 2.87. On to AKAADSPTRNDLESGLGHFWLRVH [S20W], for which the protein stability index was found to be 2.25. With AKAADSPTRNDLESGLGHFQLRVH [S20Q], the protein stability index stood at 3.17.

For the origin of these results see the supplement of paper PMC10567573.
